Assay results reported in patent US20040208880A1.

Molecular target: GFP-tagged Pak1 (human) (UniProt Q13153)
Assay: cell-based or functional assay

GFP-tagged Pak1 (human), sequence (Q13153 whole entry A26V/E503D): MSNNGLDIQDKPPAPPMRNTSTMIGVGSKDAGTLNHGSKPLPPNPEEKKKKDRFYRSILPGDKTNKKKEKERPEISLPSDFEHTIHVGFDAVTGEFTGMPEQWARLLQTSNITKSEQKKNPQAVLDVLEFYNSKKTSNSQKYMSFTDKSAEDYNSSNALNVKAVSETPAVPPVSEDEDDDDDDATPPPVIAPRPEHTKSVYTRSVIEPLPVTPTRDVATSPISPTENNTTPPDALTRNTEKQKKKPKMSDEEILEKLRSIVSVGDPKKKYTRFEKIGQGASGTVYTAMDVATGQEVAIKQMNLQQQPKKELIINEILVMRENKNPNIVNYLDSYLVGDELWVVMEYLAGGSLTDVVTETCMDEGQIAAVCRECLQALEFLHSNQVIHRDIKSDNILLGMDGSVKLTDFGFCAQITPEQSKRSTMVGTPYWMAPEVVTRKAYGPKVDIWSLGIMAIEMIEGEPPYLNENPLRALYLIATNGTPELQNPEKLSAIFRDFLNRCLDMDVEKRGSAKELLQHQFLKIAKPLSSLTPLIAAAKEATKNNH

- vesicle formation (macropinocytosis), confocal microscopy of cotransfected SKBR3 cells (% of the transfected cells): > 80
Substance: RFP-DLC1-1-66 (from UniProt P61273 1-66)
